B1: Isocitrate dehydrogenase [NADP] (Bacillus subtilis), P39126 (parent)
chain: MAQGEKITVSNGVLNVPNNPIIPFIEGDGTGPDIWNAASKVLEAAVEKAYKGEKKITWKEVYAGEKAYNKTGEWLPAETLDVIREYFIAIKGPLTTPVGGGIRSLNVALRQELDLFVCLRPVRYFTGVPSPVKRPEDTDMVIFRENTEDIYAGIEYAKGSEEVQKLISFLQNELNVNKIRFPETSGIGIKPVSEEGTSRLVRAAIDYAIEHGRKSVTLVHKGNIMKFTEGAFKNWGYELAEKEYGDKVFTWAQYDRIAEEQGKDAANKAQSEAEAAGKIIIKDSIADIFLQQILTRPNEFDVVATMNLNGDYISDALAAQVGGIGIAPGANINYETGHAIFEATHGTAPKYAGLDKVNPSSVILSGVLLLEHLGWNEAADLVIKSMEKTIASKVVTYDFARLMDGATEVKCSEFGEELIKNMD
partner: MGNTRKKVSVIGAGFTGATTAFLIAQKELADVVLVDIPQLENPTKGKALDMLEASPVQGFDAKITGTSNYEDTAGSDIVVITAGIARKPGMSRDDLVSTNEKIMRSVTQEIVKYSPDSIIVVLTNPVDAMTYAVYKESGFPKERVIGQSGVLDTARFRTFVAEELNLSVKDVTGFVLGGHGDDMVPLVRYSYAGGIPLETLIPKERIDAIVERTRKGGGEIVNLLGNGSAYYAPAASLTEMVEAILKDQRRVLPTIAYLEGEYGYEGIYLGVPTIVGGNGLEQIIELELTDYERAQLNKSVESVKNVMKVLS

Variants of: B1
Settings: with mdh_bacsu mdh

Variant	effect of a mutation on the interaction
MAQGEKITVSNGVLNVPNNPIIPFIEGDGTGPDIWNAASKVLEAAVEKAYKGEKKITWKEVYAGEKAYNKTGEWLPAETLDVIREYFIAIKGPLTTPVGGGIRPLNVALRQELDLFVCLRPVRYFTGVPSPVKRPEDTDMVIFRENTEDIYAGIEYAKGSEEVQKLISFLQNELNVNKIRFPETSGIGIKPVSEEGTSRLVRAAIDYAIEHGRKSVTLVHKGNIMKFTEGAFKNWGYELAEKEYGDKVFTWAQYDRIAEEQGKDAANKAQSEAEAAGKIIIKDSIADIFLQQILTRPNEFDVVATMNLNGDYISDALAAQVGGIGIAPGANINYETGHAIFEATHGTAPKYAGLDKVNPSSVILSGVLLLEHLGWNEAADLVIKSMEKTIASKVVTYDFARLMDGATEVKCSEFGEELIKNMD [S104P]	increasing interaction

From IntAct's records for PubMed 24325460
